Assay results: the DeepSol protein solubility set

Assay: soluble on expression in E. coli; label from the status in PepcDB or PDB records
For “MGSDKIHHHHHHLCRRLDGLNPNQQALCAENPFSIPFVARGVREAIRECENKFKFERWNCSSRDEVTETRHGKFQDILGKTLRSANKEAAFLNAIMAASIVHSITKGCNTGNLTECGCDSKPGMQRYQAESDPSMSRDQFSWGGCSDNVPHGIRYAKKFLDDWETAQFDKTKNVAHLVRRHNNFVGREAIAQNIRRQCRCHGVSGSCEFKTCWLQMQKFSQVSDLLKKRYDHFAVQVTRKATKRLRRKERTERKIPLRGNEMAYVHRSPSYCEKNLTAGILGTSGRECIHNSYSSESCDLLCCGRGYNTRLEIRQTQCECKFVWCCEVKCKTCTEEVAVHTCK”, the “soluble on expression in E. coli” value was “not soluble”. With “MSLAYQSEYALENEMMNQLEQLGYERVTIRDNKQLLDNFRTILNERHADKLEGNPLTDKEFQRLLTMIDGKSIFESARILRDKLPLRRDDESEIYLSFLDTKSWCKNKFQVTNQVSVEDTYKARYDVTILINGLPLVQVELKRRGIDINEAFNQVKRYRKQNYTGLFRYIQMFIISNGVETRYFSNNDSELLKSHMFYWSDKQNNRINTLQSFAESFMRPCQLAKMISEGHHHHHH” the “soluble on expression in E. coli” value was “soluble”. In the case of “RVSLLKRKYKRVTTIAERTRRAQSETDRRNYTAASKARTQAQRSSKPQRTRASSRSRRDNSVTVEELMRRRQEQQQTGAKSFAPRPTRTAAQREAAERDLTRRLVNPDPEIHRTRTFDDDLYS”, the “soluble on expression in E. coli” value is reported as “not soluble”. In the case of “GMWSYDKITDYLMNNLGEKRYKHSLGVMDTAVRLAGIYNEDTEKARIAGLVHDCAKKLPGEKIIEICTNEGYELGDEDIRNSYLLHGLAGRILAKKVIGIDDEDVLNAIEFHTTGRPNMSLLEKIIYIADYIEPGREFKGVDELRKAADEDLNKALLMSFDNTIKFVIDKGGFLHHNTIEARNYLISRKG”, the “soluble on expression in E. coli” value is reported as “soluble”. In the case of “MLRVRLTKMQSDELDAIIGELQAQMPEASVTTSSIARYALEKYVSDHIAKRDGTKIFIEINTADATEEEIKNLYDLLSKLFDEAKENYSPMVHYMVGEILEPLMMKMARLMKLKKPEVKAGE”, the “soluble on expression in E. coli” value is reported as “not soluble”. In the case of “MKRAPFLCKQSPDRTLEVVILAGSLAWETSRVWRKDPDREDDVPPMVLGPNELADLSNLTIIRPDTLYVRVLRTGDISEEDLLKIAVKLAHAGVQMARLMSPDGELLENWTGQLERLRQERPSDILPDHFRLDEEALWFDKLTERRDGESDVQPQRICSPLRVTAITCDSHDGSYGRLLEWHTTTGQLRRWAMPMAMLSGNGEELRRILLENGLTNISTRPALRSLLCEYISRSLPGRRVTCVEKTGWHNGVYVLPDEVIGPDGDNVILQGSHYLTGGFAQAGTLAEWQEQVAALCAGNSRLVFAVCCALAAPLLRLTGTGGGGFHLRGESTDGKTTVMKVAASVCGGTDYWHSWRATGNALEGIASRHNDALLPLDELREVDPREAGMIAYMLANGQGKGRARTDGEVRNRRHWTLLLFSTGELSLAEHTERAGERIYAGMDVRMVQIPSDTGQHGAFEQLHGFASGQQFADTLCDRVARFHGTAFRAWLAFLTHDQDASTTLARELLRRYQNALMPDNAGNQVQRIVARFALLAAAGEIATLHGITGWQKGTAYEAVQICLHAWLNERGHIANQEDEGVLAQIKRFITAHQYSRFASWDGPDRPLNMAGFRRVEKDPLTGEEHTLFFILPEGWREICRGFSPARAARLCQEAECLQPGSDGKYQSQVRLPEIGKTRVYRLTSRILSILEHHHHHH”, the “soluble on expression in E. coli” value is reported as “soluble”. In the case of “MTEVRRRGRPGQAEPTAQKGAQALERGIAILQYLERSGGSSSVSDISGSLDLPLSTTFRLLKVLQAADFVYQDSQLGWWHIGLGVFNVGSAYIHNRDVLSVAGPFMHRLMLLSGETVNVAIRNGNEAVLIGQKECKSMVRMCAPLGSRLPLHASGAGKALLYPLTEEELVGIVVNTGLRRFTPTTLVDLPILLKNLEQAREQGYTVDQEEHVVGLNCIASAIYDDAGSVVAAISISGPASRLTEDRFISQGELVRDTAKDISTALGLKPPVA”, the “soluble on expression in E. coli” value is reported as “not soluble”. With “MGHHHHHHSHMSLKGKRIGFGFTGSHCTYEEVMPHLEKLIAEGAEVRPVVSYTVQSTNTRFGEGAEWIKKIEEITGFKAINSIVGAEPLGPKIPLDCMVIAPLTGNSMSKFANAMTDSPVLMAAKATLRNGKPVVLAVSTNDALGLNGVNLMRLMATKNIYFVPFGQDAPEKKPNSMVARMELLEDTVLEALQGKQLQPVVVEKFRYMN” the “soluble on expression in E. coli” value was “soluble”. In the case of “MGQGNDTSEVMLLDTGWEFSQSGTEKWMPATVPGTVHQDLISHELLPNPFYGMNEKKIQWVENEDWEYRTSFIVSEEQLNRDGIQLIFEGLDTYADVYLNGSLLLKADNMFVGYTLPVKSVLRKGENHLYIYFHSPIRQTLPQYASNGFNYPADNDHHEKHLSVFSRKAPYSYGWDWGIRMVTSGVWRPVTLRFYDIATISDYYVRQLSLTDENARLSNELIVNQIVPQKIPAEVRVNVSLNGTTVTEVKQQVTLQPGINHITLPAEVTNPVRWMPNGWGTPTLYDFSAQIACGDRIVAEQSHRIGLRTIRVVNEKDKDGESFYFEVNGIPMFAKGANYIPQDALLPNVTTERYQTLFRDMKEANMNMVRIWGGGTYENNLFYDLADENGILVWQDFMFACTPYPSDPTFLKRVEAEAVYNIRRLRNHASLAMWCGNNEILEALKYWGFEKKFTPEVYQGLMHGYDKLFRELLPSTVKEFDSDRFYVHSSPYLANWGRPESWGTGDSHNWGVWYGKKPFESLDTDLPRFMSEFGFQSFPEMKTIAAFAAPEDYQIESEVMNAHQKSSIGNSLIRTYMERDYIIPESFEDFVYVGLVLQGQGMRHGLEAHRRNRPYCMGTLYWQLNDSWPVVSWSSIDYYGNWKALHYQAKRAFAPVLINPIQQNDSLSVYLISDRLDTMEQMTLEMKVVDFDGKTLGKKIQVHSLEVPANTSKCVYRAKLDGWLTPEDCRRSFLKLILKDKSGHQVAESVHFFRKTKDLQLPPTSVSYQMKQTDGKCELTLFSSMLAKDIFIETPLQGARYSDNFFDLLPGERKKVIITSPRIKKGEELPVNIKHIRETYKEHHHHHH”, the “soluble on expression in E. coli” value is reported as “soluble”. For “MGSDKIHHHHHHMVLKVFKDHFGRGYEVYEKSYREKDSLSFFLTKEEEGKILVVAGEKAPEGLSFFKKQRAEGVSFFFCERNHENLEVLRKYFPDLKPVRAGLRASFGTGDRLGITTPAHVRALKDSGLFPIFAQQSVRENERTGRTWRDVLDDATWGVFQEGYSEGFGADADHVKRPEDLVSAAREGFTMFTIDPSDHVRNLSKLTEKERNEKFEEILRKERIDRIYLGKKYSVLGEKIEFDEKNLRDAALVYYDAIAHVDMMYQILKDETPDFDFEVSVDETETPTSPLFHIFVVEELRRRGVEFTNLALRFIGEWEKGIDYKGDLAQFEREIKMHAEIARMFEGYKISLHSGSDKFSVYPAFASATGGLFHVKTAGTSYLEAVKVISMVNPELFREIYRCTLDHFEEDRKSYHISADLSKVPEVEKVKDEDLPGLFEDINVRQLIHVTYGSVLKDASLKERLFKTLEQNEELFYETVAKHIKRHVDLLEG”, the “soluble on expression in E. coli” value was “not soluble”. With “MATTKRVLYVGGLAEEVDDKVLHAAFIPFGDITDIQIPLDYETEKHRGFAFVEFELAEDAAAAIDNMNESELFGRTIRVNLAKPMRIKE” the “soluble on expression in E. coli” value was “soluble”. For “MKKRHLLSLLALGISTACYGETYPAPIGPSQSDFGGVGLLQTPTARMAREGELSLNYRDNDQYRYYSASVQLFPWLETTLRYTDVRTRQYSSVEAFSGDQTYKDKAFDLKLRLWEESYWLPQVAVGARDIGGTGLFDAEYLVASKAWGPFDFTLGLGWGYLGTSGNVKNPLCSASDKYCYRDNSYKQAGSIDGSQMFHGPASLFGGVEYQTPWQPLRLKLEYEGNNYQQDFAGKLEQKSKFNVGAIYRVTDWADVNLSYERGNTFMFGVTLRTNFNDLRPSYNDNARPQYQPQPQDAILQHSVVANQLTLLKYNAGLADPQIQAKGDTLYVTGEQVKYRDSREGIIRANRIVMNDLPDGIKTIRITENRLNMPQVTTETDVASLKNHLAGEPLGHETTLAQKRVEPVVPQSTEQGWYIDKSRFDFHIDPVLNQSVGGPENFYMYQLGVMGTADLWLTDHLLTTGSLFANLANNYDKFNYTNPPQDSHLPRVRTHVREYVQNDVYVNNLQANYFQHLGNGFYGQVYGGYLETMFGGAGAEVLYRPLDSNWAFGLDANYVKQRDWRSAKDMMKFTDYSVKTGHLTAYWTPSFAQDVLVKASVGQYLAGDKGGTLEIAKRFDSGVVVGGYATITNVSKEEYGEGDFTKGVYVSVPLDLFSSGPTRSRAAIGWTPLTRDGGQQLGRKFQLYDMTSDRSVNFRLEHHHHHH”, the “soluble on expression in E. coli” value was “not soluble”. In the case of “MSLTTSKTRKSGVAMTEKLELDPARTAIVLIEYQNEFTSDGGVLHGAVADVMQHTGMLANTVAVVDAARQAGVPIMHAPITFAEGYGELTRHPYGILKGVVDGKAFVKGTWGAAIVDELAPVNGDIVIEGKRGLDTFASTNLDFILRSKGVDTIVLGGFLTNCCVESTMRTGYERGFRVITLTDCVAATSQEEHNNAISYDFPMFSVPMTSADVIAALEGHHHHHH”, the “soluble on expression in E. coli” value is reported as “soluble”. For “MASSSSGGAGGAGGASGAPEVKIHNVYMSNVEEEFARIRGFVEDYPYVAMDTEFPGVVATPLGTFRSKEDFNYQQVFCNVNMLKLIQVGFAMVNDKGELPPTGDVWQFNFNFSFAEDMFSHESVEMLRQAGIDFTLLQNNGIPTAVFGELLTTSGLITDPRITWLTFSSGYDFGYLLKSITLGDLPKEESTFFMCHKTLFPTSFDIKILLRTPNCASAKLKGGLQEVADQLDVKRQGVRHQAGSDALLTAATFFKIKKQFFGDNWNQIAPLICGHMFGLGSSLSLFHSSGSTSRLGDETPQGLIGVPQQA”, the “soluble on expression in E. coli” value was “not soluble”. For “MERIERISEEIKREISDIIQNELKDPRLSKLISITEVNVTKDLRYAKVYVSVMGSEEEKANSLEGLKSAAGFIRREIGRRVQLRYTPEIHFELDNSIERGAYITKLINETSAQNKGSKDPEDT”, the “soluble on expression in E. coli” value was “soluble”. For “MAQRYKRMSSTDINEYMPENLAKAIANPLFPALDSLLRAGRHVSSDDLDNHAFLSDFEPDLALFYQRYHTELVRAPEGFFYLRPRSTSLINRSVLSELDMLVGKVLCFLYLSPERLAHEGIFTNQELYDELLTLVEEKKLMKLVTNRASGSDLDREKLFEKVRTSLRRLRRLGMVITIGDTGKFRITEAVFRFGADVRLGGDVREAQLRLIRDGEAVVHTPEPSQQSLLENPTAEYDEEQTEWEDEALEHHHHHH”, the “soluble on expression in E. coli” value was “soluble”. For “LKCSTVVCVICLEKPKYRCPACRVPYCSVVCFRKHKEQCNPET”, the “soluble on expression in E. coli” value was “soluble”. For “MISSPHKLTGDIMTKRTKRTRRLFSAEFKLEAAQLVLDQNYSVTEAAQAMNVGKSTMDKWVRQLREERQGKTPKASPMTPEQIEIRELKKKLARLEEHNEILKKATALLMSDSLNNSLEHHHHHH”, the “soluble on expression in E. coli” value was “soluble”. In the case of “MSHRPIAIFDFDGTLTRCDSLLPFLRQAQPVILFWLRLPFYLAMWMCYKLRLAPADRTKAAILSTVLKGKREVECRAMGQRFVPAIESILRPEALRCLEWHRSEGHRLVLLTASLLPCVEPWAEKTGFHTVIATLPEIKSGILTGRFEGNNCKGKEKIHRLDRALPHWRDSISYGYGDSPSDRPLLSLCTHSYYRRFPAL”, the “soluble on expression in E. coli” value is reported as “not soluble”. In the case of “MSLSRPQFDPSAYAAQLEDKKSRLAGLLAPFAAPAPEVFESPREHYRLRAEFRLWRETGNEKRHYAMFEQGDKHTPILLEDFPIASRRINELMPRLKAAWADPALGFKLFQVEFLTTLAGDALITLCYHRPIDDAWRQAAEKLAAELGVNLVGRSRGKRIVVGRDYVEEELSVAGRRFRYRQPEGAFTQPNGEVNQKMLGWAYEALGQRDDDLLELYCGNGNFTLPLATRVRKVLATEISKSSVNAALANLADNAVDNVSLVRLSAEELTQALNEVRPFRRLADIDLKSYAFGSVFVDPPRAGMDPDTCELARRFERILYISCNPETLAQNIAQLHDTHRISRCALFDQFPYTHHMESGVLLEEGHHHHHH”, the “soluble on expression in E. coli” value is reported as “soluble”. For “VPQIDTRDCGPAVLASVAKHYGSNYSIAYLRELSKTNKQGTTALGIVEAAKKLGFETRSIKADMTLFDYNDLTYPFIVHVIKGKRLQHYYVVYGSQNNQLIIGDPDPSVKVTRMSKERFQSEWTGLAIFLAPQPN”, the “soluble on expression in E. coli” value was “not soluble”.
